Measurements published in the Human Domainome abundance scans (Beltran et al. 2025).

B1: Transcription elongation regulator 1-like protein, residues 448 to 504; numbered along this chain, Q5VWI1 (parent)
chain: LPLEERVTHFRDMLLERGVSAFSTWEKELHKIVFDPRYLLLNSEERKQIFEQFVKTR

Variants of: B1
Experiment: abundance fitness (aPCA) (normalised: wild type 0, dead -1); higher = more abundant; growth selection in yeast, the domain comes from the species named
Conditions: Homo sapiens

Abundance fitness, by site and new letter:
E16: T -0.851 | I -0.976 | N -0.657 | V -0.666 | R -1.09 | L -1.01 | F -0.568 | Q 0.176 | A -0.46 | K 0.226 | S -0.797 | Y -0.882 | M -0.438 | C -0.632 | W -0.646 | G -0.868
L14: A -0.701 | S -0.831 | M -0.066 | F -0.817 | H -0.997 | G -0.751 | K -0.905 | V -0.967 | W -0.093 | P -0.251 | D -0.484 | T -0.528 | R -0.739 | C -0.561
F10: P -0.227 | Q -0.884 | C -1.1 | A -0.717 | H 0.065 | V -0.97 | T -0.679 | L -0.682 | N -0.237 | W -0.536 | G -0.727 | M -0.782 | R -0.677
R17: N -0.218 | C -0.151 | I -0.853 | L -0.312 | H -0.02 | V -0.434 | M -0.237 | G -0.978 | A -0.465 | E -0.479 | P -0.249 | F -0.368 | K 0.64 | Q -0.287
V7: L -0.096 | M 0.434 | W -0.594 | T -0.34 | E -0.406 | S -0.334 | G -0.407 | I 0.199 | K 0.843 | C -0.568 | H -0.303 | Y -0.075 | F 0.022
H9: F -0.475 | T -0.456 | M 0.266 | G -0.554 | C -0.201 | R -0.202 | E -0.234 | S -0.073 | A 0.001 | Y -0.236 | D -0.024 | V -0.274 | K 0.157 | Q 0.232 | W -0.328 | L 0.279 | I 0.378
D12: C -0.578 | E 0.274 | S -0.237 | P -0.83 | V -0.641 | G -0.381 | K -0.119 | W -0.059 | Q -0.223 | N -0.26 | F -0.624 | R -0.283 | M 0.191 | A -0.335 | I -0.177 | Y -0.112
T8: N -0.275 | F -0.291 | H -0.39 | V -0.287 | D -0.45 | R -0.631 | P -0.013 | C -0.372 | M -0.396 | I -0.386 | L -0.471 | G -0.35 | S -0.149 | Q -0.563
R11: T -0.15 | W -0.365 | E -0.437 | Q -0.244 | P 0.183 | Y -0.259 | A -0.544 | G -0.586 | L -0.396 | M -0.411 | V -0.626 | C -0.5 | D -0.909 | F -0.248 | K -0.204 | S -0.695
L15: I -0.315 | F -0.325 | A -0.226 | H -0.352 | G -0.273 | W -0.406 | V -0.207 | P -0.548 | C -0.454 | K -0.161 | N -0.154 | S 0.054 | E 0.351 | R 0.139 | D -0.142
M13: W -0.08 | K -0.555 | P -0.257 | I -0.623 | V -0.327 | R -0.7 | T -0.759 | S -0.743 | E -0.582 | F -0.765 | A -0.896 | L -0.415 | C -0.804
G18: C -0.714 | E 0.071 | M -0.96 | K 0.719 | A -0.588 | L -0.545
